Laboratory results taken from paper PMC8034623.
Where a chain is given by its changes, count along the chain named. In names and notes the source's numbering stands. Read-outs that look alike come from different tables or passages of the source.

Key:
Test in all cases: EMSA
LuxR R9A = target: T1, LuxR R9A (Vibrio alginolyticus, UniProt B4X9Q4 1-204, R9A)
T1 sequence: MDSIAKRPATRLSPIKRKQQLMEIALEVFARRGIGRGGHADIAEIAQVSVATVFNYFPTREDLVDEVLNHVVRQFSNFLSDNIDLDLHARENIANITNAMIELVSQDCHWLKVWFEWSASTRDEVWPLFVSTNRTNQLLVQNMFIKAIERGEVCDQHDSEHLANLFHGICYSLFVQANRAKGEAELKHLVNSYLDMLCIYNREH

LuxR R11A = target: T2, LuxR R11A (Vibrio alginolyticus, UniProt B4X9Q4 1-204, R11A)
T2 sequence: T1 sequence with A9R, R11A

LuxR [1] = target: T3, LuxR (Vibrio alginolyticus, UniProt B4X9Q4 1-204)
T3 sequence: T1 sequence with A9R

LuxR R9/11A = target: T4, LuxR R9/11A (Vibrio alginolyticus, UniProt B4X9Q4 1-204, R9A;R11A)
T4 sequence: T1 sequence with R11A

LuxR K16A = target: T5, LuxR K16A (Vibrio alginolyticus, UniProt B4X9Q4 1-204, K16A)
T5 sequence: T1 sequence with A9R, K16A

LuxR ΔLuxR-arm = target: T6, LuxR ΔLuxR-arm (Vibrio alginolyticus, UniProt B4X9Q4 12-204, del2-11)
T6 sequence: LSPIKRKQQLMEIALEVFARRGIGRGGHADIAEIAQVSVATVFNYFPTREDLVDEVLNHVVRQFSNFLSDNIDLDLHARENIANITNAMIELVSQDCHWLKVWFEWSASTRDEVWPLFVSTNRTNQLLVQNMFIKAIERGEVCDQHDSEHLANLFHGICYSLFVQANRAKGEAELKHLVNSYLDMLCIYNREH

LuxR [2] = target: T3, LuxR; remark: listed apart in the source
LuxR [3] = target: T3, LuxR; remark: listed apart in the source

B1: repDNA 51-bp probe (dsDNA)
DNA 1: CTAAATTTATCAATATTATTGATAAAATTATCAATATATTGTTCTACAGAT
DNA 2: ATCTGTAGAACAATATATTGATAATTTTATCAATAATATTGATAAATTTAG
Work on B1 yielded a Kd (LuxR R9A) of 434 nM, a Kd (LuxR R11A) of 1060 nM and a Kd (LuxR [1]) of 157 nM.

B2: GC-rich control 51-bp (dsDNA)
DNA 1: CTAAATTTATCAATACCGCGTCACGGAGGGGTGCGCCATTGTTCTACAGAT
DNA 2: ATCTGTAGAACAATGGCGCACCCCTCCGTGACGCGGTATTGATAAATTTAG
B2: no binding (LuxR [1]).

B3: actDNA 51-bp probe (dsDNA)
DNA 1: CTAAATTTATCAATAATAATGACATTACTGTATATAAATTGTTCTACAGAT
DNA 2: ATCTGTAGAACAATTTATATACAGTAATGTCATTATTATTGATAAATTTAG
For B3, the binding result (LuxR R9/11A) was “no binding”, the Kd (LuxR R9A) was 698 nM and the Kd (LuxR K16A) was 329 nM. For the same binder, the binding result (LuxR R11A) was “no binding”, the binding result (LuxR ΔLuxR-arm) was “no binding” and the Kd (LuxR [1]) was 449 nM.

B4: AM6 (A4T) (dsDNA)
DNA 1: B3 DNA 1 with A19T
DNA 2: B3 DNA 2 with T33A
B4: binds (LuxR [2]).

B5: AM5 (A1T, A4T, A22T) (dsDNA)
DNA 1: B3 DNA 1 with A16T, A19T, A37T
DNA 2: B3 DNA 2 with T15A, T33A, T36A
B5: binds (LuxR [2]).

B6: AM4 (A17C, T18A) (dsDNA)
DNA 1: B3 DNA 1 with A32C, T33A
DNA 2: B3 DNA 2 with A19T, T20G
B6: binds (LuxR [3]).

B7: AM2 (A4T, T18A) (dsDNA)
DNA 1: B3 DNA 1 with A19T, T33A
DNA 2: B3 DNA 2 with A19T, T33A
B7: binds (LuxR [3]).

B8: AM3 (T18A) (dsDNA)
DNA 1: B3 DNA 1 with T33A
DNA 2: B3 DNA 2 with A19T
B8: binds (LuxR [3]).

B9: AM1 (T2A) (dsDNA)
DNA 1: B3 DNA 1 with T17A
DNA 2: B3 DNA 2 with A35T
B9 showed a Kd (LuxR [1]) of 1690 nM.

B10: AM7 (A3C) (dsDNA)
DNA 1: B3 DNA 1 with A18C
DNA 2: B3 DNA 2 with T34G
B10 showed a Kd (LuxR [1]) of 636 nM.
